The target in the experiment is huTIM-3 Fc (R&D; cat.no. 2365-TM) (human) (UniProt Q8TDQ0). Kind of experiment: Galectin-9 blocking ELISA: coated Galectin-9 (competitor), 0.1875 ug/ml huTIM-3 Fc with negative control antibody; signal is huTIM-3 Fc bound. Background: ELISA stands for enzyme-linked immunosorbent assay.
huTIM-3 Fc (R&D; cat.no. 2365-TM) (human), sequence (Q8TDQ0 22-200 limits assumed): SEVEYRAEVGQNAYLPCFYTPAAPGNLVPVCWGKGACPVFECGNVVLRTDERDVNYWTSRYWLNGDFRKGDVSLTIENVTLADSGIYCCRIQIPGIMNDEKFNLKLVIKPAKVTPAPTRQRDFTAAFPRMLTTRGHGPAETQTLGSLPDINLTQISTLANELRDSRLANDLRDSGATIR

As to negative control antibody (Ctrl mAb), the OD was found to be 1.15 OD450.
